# Assay results: publication PMC4859805, “Molecular mechanism of activation-triggered subunit exchange in Ca^2+/calmodulin-dependent protein kinase II” (eLife, 2016)
# B1: Peptide B (human CaMKII-α 290-309, unphosphorylated, unlabeled) [human] / human CaMKII-α hub domain [human] (parent complex)
# chain 1: LKKFNARRKLKGAILTTMLA
# chain 2: VRKQEIIKVTEQLIEAISNGDFESYTKMCDPGMTAFEPEALGNLVEGLDFHRFYFENLWSRNSKPVHTTILNPHIHLMGDESACIAYIRITQYLDAGGIPRTAQSEETRVWHRRDGKWQIVHFHRSGAPSV
# Variants of: B1
# Test: fluorescence polarisation competition; point read at 500 µM unlabeled peptide; 2 nM labeled peptide A bound to 30 µM hub; lower polarization = more labeled peptide competed off; parent: 150; read off a plot
row,response,Variant
1,~210,chain 1 LKEFNAERKLEGAILTTMLA
2,~180,chain 1 LKKFNARRKLEGAILTTMLA
3,~160,chain 1 LKKFNAERKLKGAILTTMLA
